# Data from paper PMC11209835 (Cell metabolism, 2024).
# T1: Flag-HA-tagged ALOX12, purified (UniProt P18054 1-663)
# T1 sequence (looked up): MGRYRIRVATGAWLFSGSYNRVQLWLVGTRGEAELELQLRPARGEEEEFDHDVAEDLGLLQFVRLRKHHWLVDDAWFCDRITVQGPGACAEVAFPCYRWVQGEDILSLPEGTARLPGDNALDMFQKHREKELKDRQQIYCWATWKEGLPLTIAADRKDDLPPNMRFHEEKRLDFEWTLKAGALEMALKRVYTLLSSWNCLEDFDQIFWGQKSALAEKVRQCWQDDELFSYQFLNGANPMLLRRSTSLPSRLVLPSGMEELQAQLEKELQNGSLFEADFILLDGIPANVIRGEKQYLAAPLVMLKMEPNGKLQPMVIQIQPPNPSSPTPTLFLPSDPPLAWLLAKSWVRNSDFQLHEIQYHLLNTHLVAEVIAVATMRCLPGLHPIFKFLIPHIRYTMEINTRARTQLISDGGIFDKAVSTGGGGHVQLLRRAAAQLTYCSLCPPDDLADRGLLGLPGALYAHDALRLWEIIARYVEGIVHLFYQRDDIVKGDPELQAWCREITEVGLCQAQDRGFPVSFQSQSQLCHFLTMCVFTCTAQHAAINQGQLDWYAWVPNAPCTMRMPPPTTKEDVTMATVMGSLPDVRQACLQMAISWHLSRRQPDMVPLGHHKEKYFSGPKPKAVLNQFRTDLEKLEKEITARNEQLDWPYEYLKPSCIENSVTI
# B1: GST-PHLDA2 Full-length (amino acids 1-152) (natural protein, human, UniProt Q53GA4 1-152, looked up)
# chain: MKSPDEVLREGELEKRSDSLFQLWKKKRGVLTSDRLSLFPASPRARPKELRFHSILKVDCVERTGKYVYFTIVTTDHKEIDFRCAGESCWNAAIALALIDFQNRRALQDFRSRQERTAPAAPAEDAVAAAAAAPSEPSEPSRPSPQPKPRTP
# B2: GST-PHLDA2-PH (amino acids 7-101) (domain or fragment, human, UniProt Q53GA4 7-101, looked up)
# chain: VLREGELEKRSDSLFQLWKKKRGVLTSDRLSLFPASPRARPKELRFHSILKVDCVERTGKYVYFTIVTTDHKEIDFRCAGESCWNAAIALALIDF
# Molecular target: T1, Flag-HA-tagged ALOX12, purified
# Assay: pull-down
row,Binder,binding result
1,B1,binds
2,B2,binds
